What all share (assay type): biochemical
Holding throughout (details): 0.4 mM electrophilic substrate, 4 mM glutathione, 0.1 M MOPS pH 7.0, corrected for uncatalyzed reaction

Assay [1] is described as follows: GST conjugation activity with Atrazine (HPLC). The text has this:
(§1) The GST enzymes, expressed and purified as described in Example 5 were screened for their ability to metabolize a variety of substrates. Substrates tested included the three herbicide electrophilic substrates chlorimuron ethyl, alachlor, and Atrazine, and four model electrophilic substrates, 1-chloro-2, 4-dinitro-benzene (CDNB), ethacrynic acid, t-stilbene oxide, and 1,2-epoxy-3-(p-nitro-phenoxy) propane. The enzymes were purified as described in Example 5 and used in the following assay.
(§2) For each enzyme, the conjugation reaction with each electrophilic substrate was performed by incubating 0.3 to 30 μg enzyme in 0.1 M MOPS (pH 7.0) containing 0.4 mM of the electrophilic substrate. The reaction was inititated by the addition of glutathione to a final concentration of 4 mM. After 5 to 30 min, the reaction was terminated by the addition of 45 μL acetonitrile, microfuged for 10 min to remove precipitated protein, and then the supematent was removed and added to 65 μL of water. This sample was chromatographed on a Zorbax C8 reverse phase HPLC column (3 μm particle size, 6.2 mm×8 cm) using a combination of linear gradients (flow=1.5 mL/min) of 1% H3 PO4 in water (solvent A) and 1% H3 PO4 in acetonitile. The gradient started with 5% solvent B, progressing from 5% to 75% solvent B between 1 and 10 min, and from 75% to 95% solvent B between 10 and 12 min. Control reactions without enzyme were performed to correct for uncatalyzed reaction. Quantitation of metabolites were based on an assumption that the extinction coefficient of the conjugate was identical to that of the electrophilic substrate.
(§3) Activities are related to the activity of a known and previously isolated and purified GST enzyme, GH2/4 (also called GST 26) (Czarnecka et al., Plant Molecular Biology 3:45-58 (1984); Ulmasoz et al., Plant Physiol 108:919-927 (1995)).

A short description of assay [2]: GST conjugation activity with chlorimuron ethyl (HPLC).
Description: as §1, §2, §3

Assay [3] is described as follows: GST conjugation activity with ethacrynic acid (HPLC).
Description: as §1, §2, §3

Assay [4] is described as follows: GST conjugation activity with alachlor (HPLC).
Description: as §1, §2, §3

Assay [5] in a line: GST conjugation activity with t-stilbene oxide (HPLC).
Description: as §1, §2, §3

Assay [6] can be described thus: GST conjugation activity with CDNB (HPLC).
Description: as §1, §2, §3

The nature of assay [7]: GST conjugation activity with 1,2-epoxy-3-(p-nitrophenoxy)propane (HPLC).
Description: as §1, §2, §3

B1: ssl.pk0005.e6: soybean type III GST encoded by cDNA insert in clone ss1.pk0005.e6 (protein)
chain: MTDEVVLLDFWPSPFGMRVRIALAEKGIEYEYKEEDLRNKSPLLLQMNPVHKKIPVLIHNGKPISESLIAVQYIEEVWNDRNPLLPSDPYQRAQARFWADYVDIKIHDLGKKIWTSKGEEKEAAKKEFIEALKLLEEQLGDKTYFGGDNIGFVDIALVPFYTWFKVYETFGSLNIENECPRFVAWAKRCLQKESVAKSLPDQHKVYEFVVEIRKKLVIE
Regarding B1, the “Activity of soybean GST enzyme, Atrazine” value in assay [1] turned out to be 0.00 nmol/min/mg. For the same molecule, in assay [2], the “Activity of soybean GST enzyme, Chlorimuron Ethyl” value (shortened to “Activity … Chlorimuron Ethyl”) turned out to be 1.4 nmol/min/mg. Besides, the “Activity of soybean GST enzyme, Ethacrynic Acid” value (from here on “Activity … Ethacrynic Acid”) in assay [3] was determined as 11 nmol/min/mg. The “Activity of soybean GST enzyme, Alachlor” value in assay [4] worked out at 166 nmol/min/mg. Also, the “Activity of soybean GST enzyme, T-Stilbene Oxide” value (shortened to “Activity … T-Stilbene Oxide”) in assay [5] amounted to 0.06 nmol/min/mg. The “Activity of soybean GST enzyme, CDNB” value in assay [6] was 2030 nmol/min/mg. In assay [7], the “Activity of soybean GST enzyme, 1,2-epoxy-3-(p-nitrophenoxy)propane” value (“Activity … 1,2-epoxy-3-(p-nitrophenoxy)propane” for short) amounted to 4 nmol/min/mg.

B2: ssm.pk0067.g5: soybean type III GST encoded by cDNA insert in clone ssm.pk0067.g5 (protein)
chain: MASYHEEEVRLLGKWASPFSNRVDLALKLKGVPYKYSEEDLANKSADLLKYNPVHKKVPVLVHNGNPLPESLIIVEYIDETWKNNPLLPQDPYERALARFWSKTLDDKILPAIWNACWSDENGREKAVEEALEALKILQETLKDKKFFGGESIGLVDIAANFIGYWVAILQEIAGLELLTIEKFPKLYNWSQDFINHPVIKEGLPPRDELFAFFKASAKK
As for B2, the “Activity of soybean GST enzyme, Atrazine” value in assay [1] is 0.03 nmol/min/mg. In addition, in assay [2], the “Activity … Chlorimuron Ethyl” value was 0.1 nmol/min/mg. Moreover, the “Activity … Ethacrynic Acid” value in assay [3] was determined as 13 nmol/min/mg. Besides, the “Activity of soybean GST enzyme, Alachlor” value in assay [4] was determined as 4 nmol/min/mg. The “Activity … T-Stilbene Oxide” value in assay [5] was 0.49 nmol/min/mg. The “Activity of soybean GST enzyme, CDNB” value in assay [6] was found to be 1394 nmol/min/mg. The “Activity … 1,2-epoxy-3-(p-nitrophenoxy)propane” value in assay [7] was 19 nmol/min/mg.

B3: GST-A: soybean type III GST encoded by cDNA insert in clone GSTa (protein)
chain: MSDEVVLLDFWPSPFGMRVRIALAEKGIKYEYKEEDLRNKSPLLLQMNPVHKKIPVLIHNGKPICESLIAVQYIEEVWNDRNPLLPSDPYQRAQTRFWADYVDKKIYDLGRKIWTSKGEEKEAAKKEFIEALKLLEEQLGDKTYFGGDNLGFVDIALVPFYTWFKAYETFGTLNIEECPKFIAWAKRCLQKESVAKSLPDQQKVYEFIMDLRKKLGIE
Turning to B3, the “Activity of soybean GST enzyme, Atrazine” value in assay [1] worked out at 0.03 nmol/min/mg. Moreover, the “Activity … Chlorimuron Ethyl” value in assay [2] amounted to 0.5 nmol/min/mg. For the same molecule, the “Activity … Ethacrynic Acid” value in assay [3] was determined as 109 nmol/min/mg. For the same molecule, the “Activity of soybean GST enzyme, Alachlor” value in assay [4] was 71 nmol/min/mg. In addition, the “Activity … T-Stilbene Oxide” value in assay [5] worked out at 0.06 nmol/min/mg. Also, the “Activity of soybean GST enzyme, CDNB” value in assay [6] was determined as 1924 nmol/min/mg. For the same molecule, the “Activity … 1,2-epoxy-3-(p-nitrophenoxy)propane” value in assay [7] turned out to be 22 nmol/min/mg.

B4: se6.pk0048.d7: soybean type III GST encoded by cDNA insert in clone se6.pk0048.d7 (protein)
chain: MADEVVLLDFWPSPFGMRVRIALAEKGIKYESKEEDLQNKSPLLLKMNPVHKKIPVLIHNGKPICESLVAVQYIEEVWNDRNPLLPSDPYQRAQARFWADFVDNKIFDLGRKIWTSKGEEKEAAKKEFIEALKLLEEQLGDKTYFGGDDLGFVDIALIPFDTWFKTFGSLNIESECPKFVAWAKRCLQKDSVAKSLPDQHKVYEFIMDIRKKFDIE
In the case of B4, in assay [1], the “Activity of soybean GST enzyme, Atrazine” value came out at 0.76 nmol/min/mg. In addition, the “Activity … Chlorimuron Ethyl” value in assay [2] is 0.5 nmol/min/mg. Also, in assay [3], the “Activity … Ethacrynic Acid” value was 4 nmol/min/mg. Besides, in assay [4], the “Activity of soybean GST enzyme, Alachlor” value came to 8 nmol/min/mg. Further, in assay [5], the “Activity … T-Stilbene Oxide” value was found to be 0.07 nmol/min/mg. The “Activity of soybean GST enzyme, CDNB” value in assay [6] was found to be 1379 nmol/min/mg. The “Activity … 1,2-epoxy-3-(p-nitrophenoxy)propane” value in assay [7] turned out to be 9 nmol/min/mg.

B5: se6.pk0037.h4: soybean type III GST encoded by cDNA insert in clone se6.pk0037.h4, expressed in E. coli (protein)
chain: MAATQEDVTLLGVVGSPFVCRVQIALKLKGIECKFLEENLANKSDLLLKSNPVYKKVPVFIHNEKPIAESLVIVEYIDETWKNNPILPSDPYQRSFARFWSKFIDDKIVGASWKSVFTVDEKEREKNVEESLEALQFLENELQDKRFFGGDEFGFVDIAGVFIAFSIPIFQEVAGLQLFTSEKFPKLFKWSQELINHPVVKDVLPPREPLFAFFKSLYESLSASK
As for B5, the “Activity of soybean GST enzyme, Atrazine” value in assay [1] was found to be 0.19 nmol/min/mg. Further, the “Activity … Chlorimuron Ethyl” value in assay [2] came to 0.1 nmol/min/mg. In assay [3], the “Activity … Ethacrynic Acid” value was determined as 13 nmol/min/mg. Further, the “Activity of soybean GST enzyme, Alachlor” value in assay [4] was determined as 1 nmol/min/mg. Moreover, the “Activity … T-Stilbene Oxide” value in assay [5] was 0.06 nmol/min/mg. The “Activity of soybean GST enzyme, CDNB” value in assay [6] came to 2364 nmol/min/mg. Also, in assay [7], the “Activity … 1,2-epoxy-3-(p-nitrophenoxy)propane” value was 1 nmol/min/mg.

B6: ses8w.pk0028.c6: soybean type III GST encoded by cDNA insert in clone ses8w.pk0028.c6 (protein)
chain: MAANQEDVKLLGATGSPFVCRVQIALKLKGVQYKFLEENLRNKSELLLKSNPVHKKVPVFIHNEKPIAESLVIVEYIDETWKNNPILPSDPYQRALARFWSKFIDDKVVGAAWKYIYTVDEKEREKNVEESYEALQFLENELKDKKFFGGEEIGLVDIAAVFIAFWIPIIQEVLGLKLFTSEKFPKLYKWSQEFINHPVVKQVLPPRDQLFAFYKACHESLSASK
Turning to B6, the “Activity of soybean GST enzyme, Atrazine” value in assay [1] is 1.40 nmol/min/mg. Besides, in assay [2], the “Activity … Chlorimuron Ethyl” value turned out to be 0.2 nmol/min/mg. Also, the “Activity … Ethacrynic Acid” value in assay [3] came out at 17 nmol/min/mg. Moreover, the “Activity of soybean GST enzyme, Alachlor” value in assay [4] stood at 10 nmol/min/mg. Besides, the “Activity … T-Stilbene Oxide” value in assay [5] was 4.04 nmol/min/mg. Moreover, the “Activity of soybean GST enzyme, CDNB” value in assay [6] turned out to be 515 nmol/min/mg. Moreover, in assay [7], the “Activity … 1,2-epoxy-3-(p-nitrophenoxy)propane” value is 12 nmol/min/mg.

B7: se3.03b09: soybean type III GST encoded by cDNA insert in clone se3.03b09 (protein)
chain: MSKSEDLKLLGGWFSPFALRVQIALNLKGLEYEVVEETLNPKSDLLLKSNPVHKKIPVFFHGDKVICESAIIVEYIDEAWTNVPSILPQNAYDRANARFWFAYIDEKWFTSLRSVLVAEDDEAKKPHFEQAEEGLERLEEVFNKYSEGKAYFGGDSIGFIDIGFGSFLSWMRVIEEMSGRKLLDEKKHPGLTQWAETFAADPAVKGILPETDKLVEFAKILQLKWTAAAAAAAK
In the case of B7, the “Activity … Chlorimuron Ethyl” value in assay [2] was found to be 4.4 nmol/min/mg. Moreover, the “Activity … Ethacrynic Acid” value in assay [3] stood at 1 nmol/min/mg. The “Activity of soybean GST enzyme, Alachlor” value in assay [4] came to 168 nmol/min/mg. Moreover, the “Activity … T-Stilbene Oxide” value in assay [5] worked out at 0.07 nmol/min/mg. Moreover, the “Activity of soybean GST enzyme, CDNB” value in assay [6] came to 14364 nmol/min/mg. Further, in assay [7], the “Activity … 1,2-epoxy-3-(p-nitrophenoxy)propane” value came out at 20 nmol/min/mg.

B8: ssl.pk0020.b10: soybean type III GST encoded by cDNA insert in clone ss1.pk0020.b10 (protein)
chain: MAEQDKVILHGMWASPYAKRVELALNFKGIPYEYVEEDLRNKSDLLLKYNPVHKKVPVLVHNGKAIAESMVILEYIDETWKDGPKLLPSDSYKRAQARFWCHFIQDQLMESTFLVVKTDGEAQQKAIDHVYEKLKVLEDGMKTYLGEGNAIISGVENNFGILDIVFCALYGAYKAHEEVIGLKFIVPEKFPVLFSWLMAIAEVEAVKIATPPHEKTVGILQLFRLSALKSSSATE
As for B8, the “Activity of soybean GST enzyme, Atrazine” value in assay [1] was 0.03 nmol/min/mg. In addition, in assay [2], the “Activity … Chlorimuron Ethyl” value was 0.1 nmol/min/mg. For the same molecule, the “Activity … Ethacrynic Acid” value in assay [3] amounted to 14 nmol/min/mg. For the same molecule, the “Activity of soybean GST enzyme, Alachlor” value in assay [4] was 7 nmol/min/mg. Also, the “Activity … T-Stilbene Oxide” value in assay [5] worked out at 0.02 nmol/min/mg. Besides, the “Activity of soybean GST enzyme, CDNB” value in assay [6] was determined as 470 nmol/min/mg. Moreover, in assay [7], the “Activity … 1,2-epoxy-3-(p-nitrophenoxy)propane” value is 47 nmol/min/mg.

Source of the values: patent US6168954A, “Soybean glutathione-S-transferase enzymes” (E. I. du Pont de Nemours & Company, priority 1999, dated 2001).
